The values that follow come from patent US20240409638A1 (AVACTA LIFE SCIENCES, published 2024).

The target of assay [1] is T1, human PD-L1-Fc (R&D Systems) (human, UniProt Q9NZQ7 19-239).
T1 construct: Bought reagent; also called huPD-L1-Fc; huPD-L1; not shown: Fc part of the bought fusion
In words: SPR (Biacore) kinetics: human PD-L1-Fc immobilised on a CM5 chip, AFFIMER as analyte (column KD (pM), the same fit as the KD (M) column). On the technique in general: Surface plasmon resonance follows binding to a sensor surface in real time, without labels.

For assay [2], the target named is T1, human PD-L1-Fc (R&D Systems). The experiment in a line: SPR (Biacore) kinetics: human PD-L1-Fc immobilised on a CM5 chip, AFFIMER as analyte.
For assay [3], the target named is T2, human serum albumin (HSA) (human, UniProt P02768 25-609).
T2 construct: The assays used bought HSA (Sigma #A37812 in the SPR work); also called HuSA
T2 sequence (P02768 25-609): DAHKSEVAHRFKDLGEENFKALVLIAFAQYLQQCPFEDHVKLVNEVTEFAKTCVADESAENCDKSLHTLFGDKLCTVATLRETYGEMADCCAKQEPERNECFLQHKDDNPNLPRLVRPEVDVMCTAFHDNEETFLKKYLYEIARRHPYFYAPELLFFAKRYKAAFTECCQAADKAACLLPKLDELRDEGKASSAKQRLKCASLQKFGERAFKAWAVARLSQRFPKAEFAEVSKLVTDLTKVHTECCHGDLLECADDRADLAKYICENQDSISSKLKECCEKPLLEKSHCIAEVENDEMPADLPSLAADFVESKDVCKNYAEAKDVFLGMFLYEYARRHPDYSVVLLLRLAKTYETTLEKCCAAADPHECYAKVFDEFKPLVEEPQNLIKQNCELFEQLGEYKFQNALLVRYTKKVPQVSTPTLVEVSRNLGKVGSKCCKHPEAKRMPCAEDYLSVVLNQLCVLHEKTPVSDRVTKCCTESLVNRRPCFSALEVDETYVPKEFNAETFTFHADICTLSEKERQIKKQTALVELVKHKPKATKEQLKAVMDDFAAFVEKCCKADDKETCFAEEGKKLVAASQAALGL
The experiment in a line: SPR (Biacore) kinetics: HSA immobilised on a CM5 chip, AFFIMER as analyte, pH 7.4. The procedure: (§1) For the HSA binding kinetic analysis, HSA (Sigma #A37812) was immobilized on a CM5 chip surface using amine coupling in 10 mM sodium acetate (pH 5.0) (Cytvia). […] The chip surface was regenerated with 3 mM NaOH for 20 seconds at a flow rate of 20 μl/min. The kinetic data was blank subtracted and fit to a 1:1 Langmuir binding model (BIAcore evaluation software; Cytiva).
(§2) Protein was produced from Escherichia coli and characterized as described in Example 1. […] Kinetic analysis was carried out as described in Example 2.

Assay [4] addresses T2, human serum albumin (HSA). The experiment in a line: SPR, Biacore, HSA on CM5, pH 7.4; ILF XT format. As for the experimental part:
as §1, §2

Assay [5] addresses T2, human serum albumin (HSA). The experiment in a line: SPR, Biacore, HSA on CM5, pH 7.4; HSA-18 monomer. The procedure: as §1, §2

T1 sequence (Q9NZQ7 19-239 limits assumed): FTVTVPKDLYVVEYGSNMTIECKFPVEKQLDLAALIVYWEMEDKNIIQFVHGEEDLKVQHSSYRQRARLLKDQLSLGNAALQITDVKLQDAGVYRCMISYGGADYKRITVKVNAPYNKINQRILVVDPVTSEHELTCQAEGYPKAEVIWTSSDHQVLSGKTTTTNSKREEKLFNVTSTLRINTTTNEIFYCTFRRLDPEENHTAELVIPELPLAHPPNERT

B1: Clone 80 XT62 (designed binder)
chain: MIPGGLSEAKPATPEIQEIVDKVKPQLEEKTGETYGKLEAVQYKTQVVRRKHFPQWPGTNYYIKVRAGDNKYMHLKVFKSLDLQPREVFQEDLVLTGYQVDKNKDDELTGFAEAAAKEAAAKEAAAKEAAAKEAAAKEAAAKMIPGGLSEAKPATPEIQEIVDKVKPQLEEKTGETYGKLEAVQYKTQVVRRKHFPQWPGTNYYIKVRAGDNKYMHLKVFKSLDLQPREVFQEDLVLTGYQVDKNKDDELTGFAEAAAKEAAAKEAAAKEAAAKEAAAKEAAAKMIPRGLSEAKPATPEIQEIVDKVKPQLEEKTNETYGKLEAVQYKTQVLADWWQAKWPHSTNYYIKVRAGDNKYMHLKVFNGPYKVHQSSGGADRVLTGYQVDKNKDDELTGF
notes: Clone 80 dimer with HSA-18 at the C-terminus; Made in E. coli; No tag is stated for this construct
As to B1, the Kd in assay [1] was 0.11 nM; in assay [2], 0.109 nM; in assay [3], 704 nM; in assay [4], 7.04 nM. The koff in assay [2] stood at 0.00015 s⁻¹; in assay [3], 0.00828 s⁻¹. For the same molecule, the kon in assay [2] stood at 1.37e+06 M⁻¹ s⁻¹; in assay [3] it was 11800 M⁻¹ s⁻¹.

B2: HSA-18 (anti-serum albumin AFFIMER® polypeptide, XT monomer) (designed binder)
chain: MIPRGLSEAKPATPEIQEIVDKVKPQLEEKTNETYGKLEAVQYKTQVLADWWQAKWPHSTNYYIKVRAGDNKYMHLKVFNGPYKVHQSSGGADRVLTGYQVDKNKDDELTGF
notes: also called HSA-18 monomer
Turning to B2, in assay [5], binding was characterised by a dissociation constant (Kd) of 1.09 nM. Moreover, in assay [3], the Kd is 109 nM, the koff was 0.0078 s⁻¹ and the association rate constant (kon) worked out at 71400 M⁻¹ s⁻¹.

The Kd is the free concentration of one partner at which half of the binding sites on the other are occupied at equilibrium, for simple one-to-one binding. High values mean weaker binding, low ones tighter binding. A word on the koff: it is the first-order rate constant of dissociation. High values mean fast dissociation, low ones slow dissociation. As a reminder, the kon is the rate constant with which the complex forms. The low end stands for slower complex formation, the high end for faster complex formation.
